Biological target: full-length 3xflag-LRRK1 (leucine-rich repeat kinase 1) (human) (UniProt Q38SD2)
Assay: cryo-EM structure; single particle cryo-EM of purified 3xflag-LRRK1 eluted in Tris buffer at pH 7.4 with 0.02% Triton X-100; thin carbon film on Quantifoil grids; EMAN2 2D classes and 3D reconstruction

stoichiometry N: 2
Substance: full-length 3xflag-LRRK1 (leucine-rich repeat kinase 1), Q38SD2 1-2015

— paper PMC5561129
